Target: SBD641 (384-641), full-length substrate-binding domain of human Hsp70 with the interdomain linker (human) (UniProt P0DMV8)
Assay: native MS; nESI-MS of SBD641 with NR peptide at 1:1 molar ratio, 150 mM ammonium acetate pH 7.4, sample cone voltage 60 V (raised for collisional activation)

peptide molecules bound per SBD641 dimer: < 2 | stoichiometry N: 1
B1: NR peptide (NRLLLTG) (peptide)
peptide: NRLLLTG
